Assay results as given in US20160130327A1 (Merck Sharp & Dohme, published 2016).
Numbering of substitutions follows the chain as printed.

B1: 124.4 (antibody, V domains shown)
VH: QSLEESGGRLVTPGTPLTLTCTVSGFSLSSCNMGWVRQAPGEGLEWIGYIAASGDAFYASWAKGRFTISKTSSTTVDLRITSPTTEDTAAYFCARGSYAAYNAWDLWGPGTLVTVSS
VL: ELDMTQTASPVSAAVGGTVTINCQSSQSVYNKNYLSWYQQKPGQPPKLLIYGASTLPSGVPSRFKGSGSGTQFTLTISEVQCDDAATYYCQGYYSGYIYAFGGGTEVVVK
notes: rabbit hybridoma mAb; also called clone 124.4
B2: 324.4 (antibody, V domains shown)
VH: QSVKESEGRLVTPGTPLTLTCTVSGFSPSSYNMGWVRQAPGEGLEWIGYISTSGNTFYASWAKGRFTISKTSTTVDLRITSPTTEDTATYFCARGSYVAYNAWDLWGPGTLVTISS
VL: B1 VL with M4L, K32N, P57A
notes: rabbit hybridoma mAb; also called clone 324.4
B3: 276.10 (antibody, V domains shown)
VH: QSLEESGGDLVQPEGSLTLTCTASGFSFSGSYYMCWVRQAPGTGLEWIACIDGDLSGSAYYANWAKGRFTISGTSSTTVTLQVTSLTAADTATYFCAREGPVGVGSIYLGFDLWGPGTLVTISS
VL: ELDLTQTPASVEVPVGGTVTIKCQASHNINTYLSWYQQKPGQPPKLLIYRASDLASGVSSRFSGSGSGTQFTLTISGVECADAATYYCQQGFNSLNVENVFGGGTEVVVK
notes: rabbit hybridoma mAb (not the humanized version); also called clone 276.10
B4: 70.7 (antibody, V domains shown)
VH: QSVEESRGRLVTPGTPLTLTCTASGFSLSSYHMIWVRQAPGKGLEWIGYINYNNNPYYATWAKGRFTISRTSTTVALKITSPTTEDSATYFCARAAGNYYVGALNLWGPGTLVTISS
VL: ERDMTQTPASVEVAVGGTVTIKCQASQSIGNLLAWYQQKPGQRPKLLIYDASTLASGVPSRFKGSGSGTEFTLTISGVQCADAATYYCQQGYMITNVENAFGGGTEVVVK
notes: rabbit hybridoma mAb; also called clone 70.7
B5: 316.2 (antibody, V domains shown)
VH: B4 VH with E4K, R7E, Y52N, N54D, E85K, S87T
VL: B4 VL with R2L, D3V, M4L, S28T, A34G, Q42R, R43P, G68A, S76R, A81D
notes: rabbit hybridoma mAb; also called clone 316.2
B6: 270.7 (antibody, V domains shown)
VH: B4 VH with R7G, T18A, G25R, Y31N, S87T
VL: B4 VL with R2L, D3V, K39E, E106N, V108E, V109I
notes: rabbit hybridoma mAb; also called clone 270.7
B7: 58.5 (antibody, V domains shown)
VH: QSLEESGGRLVTPGGSLTLTCTVSGFSLSAYSVSWVRQAPGKGLEWIGIIGHSGNTYYASWAKGRFTISKTSTTVDLKITSLTTEDTATYFCAREDYRYGDYGYYWDFNFWGPGTLVTISS
VL: ELDLTQTASPVSAPVGGTVTINCQASQNIYSNLAWYQQKPGQPPKLLIYGASTLASGVSSRFKGSRSGTEFTLTISDLECADAATYYCQSYVYSSSTADTFGGGTEVVVK
notes: rabbit hybridoma mAb (not the humanized version); also called clone 58.5
B8: 223.4 (antibody, V domains shown)
VH: B7 VH with G15T, S16P, S60N, T84I
VL: ELVMTQTPSPVSAPVGGTVTISCQASRSVYNENYVAWFQHRPGQPPKLLIYTTSILASGVPSRFKGRGSGTQFTLTISDVQCDDAATYYCAGDYDDNEENAFGGGTELEIL
notes: rabbit hybridoma mAb; also called clone 223.4
B9: 347.3 (antibody, V domains shown)
VH: QSLEESEGRLVTPGTPLTLTCTVSGIDLSTYAMNWVRQAPGKGLEWIGIIGSSGGAYYASWAKGRCTISKTSTTVDLKITSPTTEDTATYFCAVSLYTYDDYADYFLWGPGTLVTISS
VL: ELVLTQSPSLSASLGTTARLTCTLSTGYSVGKYPLVWLQQVPGRPPRYLLTYHTEEFKHQGSGVHSRFSGSKDTSENSFVLRIFGLQPEDEADYYCVTAHPTESSLHYVFGGGTQLTVT
notes: rabbit hybridoma mAb; also called clone 347.3
B10: 57.4 (antibody, V domains shown)
VH: QSLEESGGGLVKPGGTLTLTCTASGFSFSSVYDMSWVRQAPGKGLEWIASIVTGSRTTWYASWAKGRFTVSKTSSTTVTLQMTSLTAADTATYFCARGEYGHDGYVDGTMGLGLWGPGTLVTISS
VL: ELDLTQTPASVEAAVGGTVAIKCQASQSIRRHLSWYQQKPGQRPKLLIYGASNLASGVSSRFKGSGSGTEFTLTISDLECADAATYYCQCTYGVGFSSTYGDAFGGGTELEIL
notes: rabbit hybridoma mAb (not the humanized version); also called clone 57.4; mAb 57.4
B11: 210.4 (antibody, V domains shown)
VH: QSVEESGGRLVTPGTPLTLTCTVSGFSLSTNAMSWVRQAPGKGLEWIGYIWSGGSTYYASWAKGRFAISKTSTTVDLKITSPTTEDTATYFCAKNGDNGQLDLWGQGTLVTVSS
VL: ELVLTQTPSPVSAAVGGTVTINCQTSQSLYNNNFLSWYQQKPGQPPKLLIYKASTLESGVPSRFKGSGSGTQFTLTISGVQCDDAATYYCQGEFSCSSADCNAFGGGTEVVVK
notes: rabbit hybridoma mAb; also called clone 210.4
B12: 212.6 (antibody, V domains shown)
VH: QSLEESGGRLVTPGTPLTLTCTVSGFSLSSYAMSWVRQAPGKGLEWIGIIGSSGNTYYASWAKGRFTISKTSTTVDLKITSPTTEDTATYFCARGGYSYDDYTPFDLWGPGTLVTVSS
VL: B9 VL with S78A, F79G, R82S, F84S, V97A, P101A
notes: rabbit hybridoma mAb; also called clone 212.6
B13: 350.1 (antibody, V domains shown)
VH: QSLEESGGDLVKPGASLTLTCTASGFSFSNSYYMCWVRQAPGKGLEWIVCIYAGSSGFTYYANWAKGRFTVSKTSSTTVTLQMTSLTAADTATYFCARDRGYYTYGYAGYGYGMDLWGPGTLVTISS
VL: ELDMTQTPSPVSTAVGGTVSISCQSGQNVWTNDYLSWYQQKPGQPPKLLIYRASTLASGVPSRFKGSGSGTQFTLTISDVQCDDAATYYCGGTFLSNGDNGFGGGTEVVVK
notes: rabbit hybridoma mAb; also called clone 350.1; mAb 350.1
B14: 240.8 (antibody, V domains shown)
VH: QSVEESGGGLVTPGGTLTLTCGVSGIDLSANEMGWVRQAPGEGLEWIGTLSYHNIPHYATWAKGRFTISKTSTTVDLKITSPTSADTATYFCGRVFTSTSFDPWGPGTLVTISS
VL: ELVMTHPPASVSAPVGGTVTIKCQASHNIGSRLPWYQQEPGQPPKLLIYRTSTLASGVPSRFTGSGYGTEFTLTISDLECADAATYYCQDHDDISHAFGGGTNVEIK
notes: rabbit hybridoma mAb; also called clone 240.8

Biological target: T1, recombinant gB (human cytomegalovirus (CMV), UniProt P06473 32-700)
T1 construct: also called gB protein; recombinant gB antigen
Assay: EIA on recombinant gB

T1 sequence (P06473 32-700 limits assumed): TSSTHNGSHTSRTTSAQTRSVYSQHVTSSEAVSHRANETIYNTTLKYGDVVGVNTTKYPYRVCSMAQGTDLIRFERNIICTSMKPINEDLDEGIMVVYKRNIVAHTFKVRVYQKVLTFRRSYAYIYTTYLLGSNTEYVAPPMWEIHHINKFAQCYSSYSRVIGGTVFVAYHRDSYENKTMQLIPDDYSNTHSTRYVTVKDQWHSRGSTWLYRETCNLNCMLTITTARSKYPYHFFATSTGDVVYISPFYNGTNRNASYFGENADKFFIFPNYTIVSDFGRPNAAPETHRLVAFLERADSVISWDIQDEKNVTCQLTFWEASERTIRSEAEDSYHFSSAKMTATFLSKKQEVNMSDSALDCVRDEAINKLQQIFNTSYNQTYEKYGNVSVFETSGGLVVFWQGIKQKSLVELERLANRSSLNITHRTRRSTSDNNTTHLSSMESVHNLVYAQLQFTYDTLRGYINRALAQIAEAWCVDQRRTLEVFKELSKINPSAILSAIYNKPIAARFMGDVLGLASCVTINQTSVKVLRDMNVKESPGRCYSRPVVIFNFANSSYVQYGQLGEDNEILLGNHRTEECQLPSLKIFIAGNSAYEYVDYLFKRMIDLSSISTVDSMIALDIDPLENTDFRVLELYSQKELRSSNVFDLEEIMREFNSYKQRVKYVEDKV

B1: no binding (tested: 1 µg/ml).
B2: no binding (tested: 1 µg/ml).
B3: no binding (tested: 1 µg/ml).
B4: no binding (tested: 1 µg/ml).
B5: no binding (tested: 1 µg/ml).
B6: no binding (tested: 1 µg/ml).
B7: no binding (tested: 1 µg/ml).
B8: no binding (tested: 1 µg/ml).
B9: no binding (tested: 1 µg/ml).
B10: no binding (tested: 1 µg/ml).

Biological target: T2, revertant virus (AD169 CMV with the pentameric gH complex restored)
T2 construct: also called revertant virion; revertant virions
Assay: antibody-titration EIA, coated revertant virions

First: B1
Second: B2
The EC50 of the first is 2.4-fold lower: 1.72 µg/mL for the first, 4.09 µg/mL for the second.

Going from B11 to B3, the EC50 rises from 0.03 µg/mL to 0.25 µg/mL (8.3-fold).

B4 and B5 are within 1.5-fold of each other in EC50: 1.46 µg/mL for the first, 1.06 µg/mL for the second.

B6 and B7 are within 1.5-fold of each other in EC50: 0.68 µg/mL for the first, 0.59 µg/mL for the second.

First: B8
Second: B12
The EC50 of the first is 34-fold lower: 1.54 µg/mL for the first, 52.9 µg/mL for the second.

Compared with B9, B13 is 17-fold lower in EC50: 0.34 µg/mL for the first, 0.02 µg/mL for the second.

Going from B10 to B14, the EC50 rises from 0.09 µg/mL to 2.6 µg/mL (29-fold).

Biological target: T2, revertant virus (AD169 CMV with the …)
Assay: cell-based or functional assay

First: B1
Second: B2
The “Neutralization in ARPE-19 cells EC50” value of the first is 2-fold lower: 0.05 µg/mL for the first, 0.1 µg/mL for the second.

Going from B11 to B3, the “Neutralization in ARPE-19 cells EC50” value falls from 100 µg/mL to 0.01 µg/mL (10000-fold).

Going from B4 to B5, the “Neutralization in ARPE-19 cells EC50” value falls from 0.03 µg/mL to 0.02 µg/mL (1.5-fold).

B6 and B7 are the same in “Neutralization in ARPE-19 cells EC50” value: 0.02 µg/mL for the first, 0.02 µg/mL for the second.

Going from B8 to B12, the “Neutralization in ARPE-19 cells EC50” value rises from 0.06 µg/mL to 3.71 µg/mL (62-fold).

Compared with B9, B13 is 3300-fold higher in “Neutralization in ARPE-19 cells EC50” value: 0.03 µg/mL for the first, 100 µg/mL for the second.

Going from B10 to B14, the “Neutralization in ARPE-19 cells EC50” value rises from 0.01 µg/mL to 0.79 µg/mL (79-fold).

Going from B1 to B2, the “Neutralization in MRC-5 cells EC50” value rises from 0.08 µg/mL to 0.21 µg/mL (2.6-fold).

B11 and B3 are the same in “Neutralization in MRC-5 cells EC50” value: 100 µg/mL for the first, 100 µg/mL for the second.

B4 and B5 are within 1.5-fold of each other in “Neutralization in MRC-5 cells EC50” value: 0.09 µg/mL for the first, 0.08 µg/mL for the second.

First: B6
Second: B7
The “Neutralization in MRC-5 cells EC50” value of the first is 1700-fold lower: 0.06 µg/mL for the first, 100 µg/mL for the second.

B8 and B12 are the same in “Neutralization in MRC-5 cells EC50” value: 100 µg/mL for the first, 100 µg/mL for the second.

B9 and B13 are the same in “Neutralization in MRC-5 cells EC50” value: 100 µg/mL for the first, 100 µg/mL for the second.

B10 and B14 are the same in “Neutralization in MRC-5 cells EC50” value: 100 µg/mL for the first, 100 µg/mL for the second.
